Laboratory results published in the DeepSol protein solubility set.

Experiment: soluble on expression in E. coli; label from the status in PepcDB or PDB records

**Q.** For “DQAGKSPNAVRYHGGDEIILQGFHWNVVREAPNDWYNILRQQAATIAADGFSAIWMPVPWRDFSSWSDGSKSGGGEGYFWHDFNKNGRYGSDAQLRQAASALGGAGVKVLYDVVPNHMNRGYPDKEINLPAGQGFWRNDCADPGNYPNDCDDGDRFIGGDADLNTGHPQVYGMFRDEFTNLRSQYGAGGFRFDFVRGYAPERVNSWMTDSADNSFCVGELWKGPSEYPNWDWRNTASWQQIIKDWSDRAKCPVFDFALKERMQNGSIADWKHGLNGNPDPRWREVAVTFVDNHDTGYSPGQNGGQHHWALQDGLIRQAYAYILTSPGTPVVYWDHMYDWGYGDFIRQLIQVRRAAGVRADSAISFHSGYSGLVATVSGSQQTLVVALNSDLGNPGQVASGSFSEAVNASNGQVRVWRSGTGSGGGEPGALVSVSFRCDNGATQMGDSVYAVGNVSQLGNWSPAAALRLTDTSGYPTWKGSIALPAGQNEEWKCLIRNEANATQVRQWQGGANNSLTPSEGATTVGRL”, which “soluble on expression in E. coli” value is on record?
**A.** soluble

**Q.** With “DAPAVGKDLTQAAENIPPAFHNAPRQGELPALNYVNQPPMVPHSVANYQVTKNVNQCLNCHSPENSRLSGATRISPTHFMDRDGKVGSSSSPRRYFCLQCHVSQANVDPIVPNDFKPMKGYGN” as the sequence, how does the “soluble on expression in E. coli” value read?
**A.** soluble

**Q.** Which “soluble on expression in E. coli” value does the source give for “GMINTKEDFLLLIKQIEQKSGYKKPKAFGIARLDRGQLNKNKILQASFALINYEQNFGSAAIMLEAFMQRGVEIDFNASEFVQTLKLEDIDFALSCFKPFLEEDGHQNIDLLKIIKDKFKDDEFSFVCLFEDKEPLSVESIYLKLYLLSTKKVPLRSINLNGAFGLLSNVAWSDDKPIELEYLRANEMRLKMSNQYPKIDFVDKFPRFLAHIIPEDNTRILESSKVRMGASLAAGTTIMPGASYVNFNAGTTGACMVEGRISSSAIVGEGSDVGGGASILGVLSGTSGNAISVGKACLLGANSVTGIPLGDNCIVDAGIAVLEGTKFLLKDAEELAKLNPYFNFDKEIYKGLELKGLNGLHFRQDSISGAMIVALNKKAVKLNEALH” here?
**A.** soluble

**Q.** For “MCSHGHSHNCAAEHIPEVPGDDVYRYDMVSYIDMEKVTTLNESVDGAGKKVFKVMEKRDDRLEYVESDCDHELLFNIPFTGHVRLTGLSIIGDEDGSHPAKIRLFKDREAMSFDDCSIEADQEIDLKQDPQGLVDYPLKASKFGNIHNLSILVDANFGEDETKIYYIGLRGEFQHEFRQRIAIATYESRAQLKDHKNEIPDAVAKGLF”, which “soluble on expression in E. coli” value is on record?
**A.** not soluble

**Q.** With “ILLVHGSGYGGWCWDATIRALAAHGARARALDLPGRIFTPGLSLADHAAAILQEIRAPVTLVGHSAGGFSIAAAAEAAAPGLIERLIFLCAYAPRDGASVASMRRAQARQPLRPAIRLAPDRLSYSFDPDLAGEALFHDCPPEVRAAALARMGAEPVGPQEERIRLSARYHALPKHYIRCLEDRAIPPETQEAMTADWPAGSVSTLPAGHSPFLSCPEALAKRLISVAAN” as the sequence, how does the “soluble on expression in E. coli” value read?
**A.** not soluble

**Q.** With “MGSSHHHHHHSSGRENLYFQGHMPCQPACPVSADTWAPSAVPDDYRYADLHLPQQVGQASLAAECAVAISYNGLNQAVMMASPEDIEDFVRGFSLSSGFVESIDDIYEIRVSGQGESLHAEVEISSRAFWNLKRQRRQLAGTSGCGLCGVEALEQALPQLPERSPQALPPAAHLGALRQRIEQAQRLARHSGALHAALYFDGHGELRLCREDIGRHNALDKLIGALHRQGLDAARGFAVVTSRCSLELIHKAVRAGIGTLVSLSAPTALTVQWARRHQLNLIHQPHHNAPRVYSPAPAATE” as the sequence, how does the “soluble on expression in E. coli” value read?
**A.** soluble

**Q.** With “MAHHHHHHMLRMKLVTYFEGFFFMATANDLPAAFRGSNCLQVQVNSKSGSKRVIRLVFIRHGQSVWNSLFNSFDATWPVRAVKAMVNEAVYFFTNPFDSVIVDSPLSEKGRSEAQELARFVRSAKGQVCFDASCSLIVCSNLRRAMETALVGMQPRIVSTGERIVVDSSLQEGSRNIDAQSLSTEPGKIVPCKMGELATPQLLGTAFDPHLNGGNRTAKRNVYDRMDEFVQHLFGGVKSNPYVPASGAESGNSALKEVIVVGHSGYFRCFFKRFLPSSSRHVAKTKKLKNCAVVSFDLVRNESTGEVYIEESTVSVLYKGF” as the sequence, how does the “soluble on expression in E. coli” value read?
**A.** not soluble

**Q.** With “MKFEAIAVEKIPLIHEGDNLPSIICEKIGLQDRDIMIIASTIVAKAEGEIFRLEDITPGEEALEIAARTGKDPRFIQAVLSKSREVFVETPFMLVTTLAGHTCVNAGIDESNIENGFLLYPPENPDASALKIGKELEKLSGKKLSIIITDTNGRAFKIGQTGVAIGIYNIKPVKRWIGEKDLFGKVLEITEQAIADELAGAANLLMGEGAGGIPVVIIRGLDYYCEGDTSIKESYRPENMDVIKQGLRCLRNKK” as the sequence, how does the “soluble on expression in E. coli” value read?
**A.** not soluble

**Q.** Which “soluble on expression in E. coli” value does the source give for “MGSDKIHHHHHHMPEHDVRLQQLTVWLDEQLNDLFRDNAWGEVPAGSLTAASSDASFRRYFRWQGAGHSFVIMDAPPPQENCRPFVAIDHLLASADVHVPLIHAQDLERGFLLLGDLGTQTYLDIINADNADGLFADAIDALLKFQRLPMDAPLPSYDDALLRREVELFPEWYVGRELGLTFTDAQKATWQRVSQLLIDSALAQPKVLVHRDYMPRNLMQSTPNPGVLDFQDAVYGPVTYDITCLFKDAFVSWPQARVEGWLGDYWQQAQAAGIPVHAEFEAFHRASDLMGVQRHLKVIGIFARICHRDGKPRYLGDVPRFFAYINEVIGRRPELAELGELIAELQAGARA” here?
**A.** not soluble

**Q.** For “MENNENHEKLNGVLRKFLGDAFTLDGKEGGLNMEKLREAIKKEKPIMNILLMGATGVGKSSLINALFGKEVAKAGVGKPITQHLEKYVDEEKGLILWDTKGIEDKDYENTLESIKKEMEDSFKTLDEKEAIDVAYLCVKETSGRVQERERESYLEHHHHHH”, which “soluble on expression in E. coli” value is on record?
**A.** not soluble

**Q.** For “TLDPNAQQTAYEQLSQSGYEGAVVALRPSTGEVLAMASSPSYDPNQIVDPATAEDAWAEYTSTEGAPLLNHATQESLPPGSIFKIITTAAALENGYSADSTVTAEAAVTLPGTNTTLTNYGGQTCAGGGTTTLLTAFQLSCNTAFVETGIDVGADALRASAEDFGVGQTYSLGLDNVPGGLGEIPDDAALGQSSIGQRDVQMNVLQAAVMAGTVSNGGVRMEPYLVSRVTGQDLSELSTHKPKSVGGVEPEIAEQLKTLMEASERNTSGYTGIQIASKTGTAEHGDENTPPHTWYVAFNNDIAVAVLVKDGGGFGTSATGGQVAAPIGRAVLQAAGGF”, which “soluble on expression in E. coli” value is on record?
**A.** not soluble

**Q.** Which “soluble on expression in E. coli” value does the source give for “MKASYLETLDRIKDEHAEMSKHVNQQRSDIEKVALEKENMNRSYMTYAEVSNTLRSDLRKAEEINKRLQEFIMQSLAPQLSQDNQANCLAALEAFKTASPRENGNGAPALPPGFPPGAAGMLGMMPNMPFGMSPAMSQLFNQFASPHVNGGDGAGGSSGGASEAKKAKLEDPDDGELEIDVTNDDHPSTASNGGAANKNGRDSTNSVASSGASTPSIASNSRARQQQQPLAGLQGLEQMNFLAGFNPNLLRQASAAGGFNFLNDPHAQARLAAAIGQIGSRPAYSFKIVDGGVPTPTSFPPDAQKGPGIPTGLKKKMELNHGEVVCAATISRDNSRVYTGGKGCVKIWDVKESDISGATVVNRPPIASLDCLKENYIRSCKLFEDGNTLLIGGEASTVALWDLTTETKTLDLETDSQACYALAMSPDEKLLFACLADGNILIYDIHNKVKVGTLPGHQDGASCLDLSKDGTKLWSGGLDNSVRCWDLAQRKEVAKHDFASQVFSLGCCPNDEWVAVGMENNYVEVLSTTGKEKYQLTQHESCVLSLKFAHSGKFFISTGKDNALNAWRTPYGASLFQLKENSSVLSCDISFDDSLIVTGSGEKKATLYAVEY” here?
**A.** not soluble

**Q.** Which “soluble on expression in E. coli” value does the source give for “MSLKLFITGIGSGLGKALVEEGIKRGYEVYALSRHLPEEFKEKIHFVKCDLLKVEEVQGCLFKLLSGVKELELAILNAGILGKFSDMKDISLHEIDEVMKVNLWSNKVIIDTLMELGIKVKTLIGISSGAARNCNRGWNAYSLSKAGLNCLLKLYSWELPETKVISLAPGLVLTPMLKEVMSQNEEKYPSIKRIKNAPKLTPEKTAEFIFSILPKLESVESGSFVDVREGHHHHHH” here?
**A.** soluble

**Q.** For “MNVLICQQPKELVWKQREIPIPGDNEALIKIKSVGICGTDIHAWGGNQPFFSYPRVLGHEICGEIVGLGKNIADLKNGQQVAVIPYVACQQCPACKSGRTNCEKISVIGVHQDGGFSEYLSVPVANILPADGIDPQAAALIEPFAISAHAVRRAAIAPGEQVLVVGAGPIGLGAAAIAKADGAQVVVADTSPARREHVATRLELPLLDPSAEDFDAQLRAQFGGSLAQKVIDATGNQHAMNNTVNLIRHGGTVVFVGLFKGELQFSDPEFHKKETTMMGSRNATPEDFAKVGRLMAEGKITADMMLTHRYPFATLAETYERDVINNRELIKGVITF”, which “soluble on expression in E. coli” value is on record?
**A.** not soluble

**Q.** Which “soluble on expression in E. coli” value does the source give for “MKYLAAYLLLVQGGNAAPSAADIKAVVESVGAEVDEARINELLSSLEGKGSLEEIIAEGQKKFATVPTGGASSAAAGAAGAAAGGDAAEEEKEEEAKEESDDDMGFGLFD” here?
**A.** soluble

**Q.** For “AIAREWKSQDAWKQHSLRLCFGVWPGTEFLHRPRAVHRRSGVVCSQMQTEDSHPETPQVPKESLQEEKDSSPATDASFIQSQDGKTVFLDRRTERRIQRGFVLTERGPRSIWKPAGTSSQRNERVPRRAAARGGAGPPDTTPQLATVRVLVLGANHVAQRLAELLSSHSRVCGCYFVSETTDEAAIESMKKYAYALPLRSALNDDEVVRVAEWVLADYVFLVPTGETHDDGVSLKDKERLERTLAQNRVTFMDENLTGLLLENPSLIDALFRARDSLEA”, which “soluble on expression in E. coli” value is on record?
**A.** soluble

**Q.** Which “soluble on expression in E. coli” value does the source give for “MEYKSPVYGIIAVPIEKIESNDYNPNAVAPPEMQLLYKSIKEDGYTMPIVCYYNEEKDKYIIVDGFHRYRVMLENEDIYDRENGLLPVSVIDKSLDERMASTIRHNRARGSHNVDLMSKIITELCEIGKSDEWISKHLGMEVDEILRLKQITGLAYLFKDKEFGNAWIPFGSDIEEEN” here?
**A.** not soluble

**Q.** For “MGHHHHHHSHKCNAGFFHTLSGECVPCDCNGNSNECLDGSGYCVTTDGEDPGFSASALSFILSSQGAREARAPT”, which “soluble on expression in E. coli” value is on record?
**A.** not soluble

**Q.** Which “soluble on expression in E. coli” value does the source give for “MPFKPVEHPKCPKCGKSVYAAEEMSAGGYKWHKFCFKCNMCNKLLDSCTVAPHEAELYCKQCHGRKFGPKGVGFGLGAGCLTTDSGEKFGGSKQT” here?
**A.** not soluble

**Q.** With “PALVLEGDMTAPTLVIGWGSTFGSLKSAVQQCLEQGLPVAYLHLRHLNPLPDDLGSLLKKYDKVLVAELNSGQLCQLIRAVYLVDAQSISQCNGQPFSVNPLVSAIKAEANYEQQL” as the sequence, how does the “soluble on expression in E. coli” value read?
**A.** not soluble

**Q.** Which “soluble on expression in E. coli” value does the source give for “MSILHTVNKSPFERNSLESCLKFATEGASVLLFEDGIYAALAGTRVESQVTEALGKLKLYVLGPDLKARGFSDERVIPGISVVDYAGFVDLTTECDTVQAWL” here?
**A.** soluble

**Q.** With “MNNPAMTIKGEQAKKQLIAAALAQFGEYGMNATTREIAAQAGQNIAAITYYFGSKEDLYLACAQWIADFIGEQFRPHAEEAERLFAQPQPDRAAIRELILRACRNMIKLLTQDDTVNLSKFISREQLSPTAAYHLVHEQVISPLHSHLTRLIAAWTGCDANDTRMILHTHALIGEILAFRLGKETILLRTGWTAFDEEKTELINQTVTCHIDLILQGLSQRSL” as the sequence, how does the “soluble on expression in E. coli” value read?
**A.** soluble

**Q.** With “MGSDKIHHHHHHMEKEIPEMFASNYQDWQPIYNWDTCKAGRKEYGKFLCSFLTSSKDDLVVNLNGSWGTGKTELLRRLYVELAERQHPVVYINAWESDFCDDALSVISSEFLNQLEVAFGHNGDPKWLSKFNNLKQKLGKALKFGSLGATMNGEPNAATLLGATSAAVNELPDLASAAVSDNNIRLIEKISSNHANRVQAMKEVREQISALADTMQMVCEAELPIVVLVDELDRCRPTYAIEMLEVIKHFFEARGCVFLVATDTVALEHSIKAVYGASFESEKYLRRFFDRRIALPPLSITQYLKAKALDFTRYQTDQLRLFPFTAINAQLIKIFALLFENAQMSLRDVEQSLQKCVASLEYLQSLGTRPQIVNVIVLMMGSLSSNYRPNRFRIDLQIKYFPMELV” as the sequence, how does the “soluble on expression in E. coli” value read?
**A.** not soluble

**Q.** Which “soluble on expression in E. coli” value does the source give for “SNAMIRFQPITTSDVQHYKFMEELLVESFPPEEYRELEHLREYTDRIGNFHNNIIFDDDLPIGFITYWDFDEFYYVEHFATNPALRNGGYGKRTLEHLCEFLKRPIVLEVERPVEEMAKRRINFYQRHGFTLWEKDYYQPPYKEGDDFLPMYLMVHGNLDAEKDYEGIRHKLHTIVYGVKE” here?
**A.** soluble
